In paper PMC3902905:

Tests used:
[1] = target: Egg nucleoplasmin (eNP) from Xenopus laevis (X. laevis) (UniProt P05221); assay: native gel or EMSA; 2D electrophoresis (4–16% native PAGE, then 12.5% SDS–PAGE) of the high molecular mass complex and densitometry with known amounts of each protein as standards; Buffer I, 240 mM NaCl
[2] = target: Egg nucleoplasmin (eNP) from Xenopus laevis (X. laevis) (UniProt P05221); assay: AUC; sedimentation equilibrium, Buffer I (0.24 M NaCl), NP 0.3 µM, 4°C, 8000 and 12 000 rpm, fit to a single ideal species
[3] = target: Egg nucleoplasmin (eNP) from Xenopus laevis (X. laevis) (UniProt P05221); assay: co-sedimentation; 5–20% sucrose gradient in Buffer I (240 mM NaCl), NP 0.9 µM mixed with histones, 1 h 25°C, 29 000 rpm 22 h 4°C; fractions by A230 and SDS–PAGE

Chain of UniProt P05221 (P05221 whole entry): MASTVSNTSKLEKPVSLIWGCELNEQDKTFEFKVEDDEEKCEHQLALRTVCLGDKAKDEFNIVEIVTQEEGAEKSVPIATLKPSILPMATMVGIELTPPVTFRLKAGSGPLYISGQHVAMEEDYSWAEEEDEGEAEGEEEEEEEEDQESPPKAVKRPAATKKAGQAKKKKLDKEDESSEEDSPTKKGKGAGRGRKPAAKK

stoichiometry N (H3-H4 dimers per NP pentamer) [1]	stoichiometry N (octamer per NP pentamer) [1]	stoichiometry N (eNP pentamers per histone octamer) [2]	stoichiometry N (octamer per NP pentamer) [3]	Substance
2.1				Natural source histones H3-H4 from chicken erythrocyte chromatin (from UniProt P84229 1-136; P70081 1-103) (complex)
	0.54	2	0.5	Natural source histone octamer from chicken erythrocyte chromatin (from UniProt P70081 1-103) (complex)
